# From PMC5719345
# Read-outs that look alike come from different tables or passages of the source.
# Legend:
# [1] = target: importin-α1 (Mus musculus) (UniProt P52293); settings: cited from earlier work
# [2] = target: N-terminus of influenza B nucleoprotein (B/NP_(1-70)) (influenza B virus (strain B/Memphis/13/03)); assay: ITC; MicroCal ITC200; 16 × 2.4 µL injections of 150 µM importin-α7 into 20 µM B/NP_TAIL; 20 mM Tris-HCl pH 7.5, 150 mM NaCl; 20 °C by the methods (25 °C by the legend of Figure 6); triplicate; single-binding site model
# Chain of N-terminus of influenza B nucleoprotein (B/NP_(1-70)) (influenza B virus (strain B/Memphis/13/03)) (P04665 1-70): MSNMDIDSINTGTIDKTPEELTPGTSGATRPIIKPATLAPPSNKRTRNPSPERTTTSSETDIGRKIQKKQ
# [3] = target: importin-α1 (Mus musculus) (UniProt P52293); settings: cited from earlier work; remark: listed apart in the source
substance,measurement,setting,value
influenza A nucleoprotein tail NTAIL (from UniProt Q289M3),Kd,[1],1700 nM
human importin-α7 (from UniProt O60684 1-536) (natural protein),Kd,[2],844 nM
same,stoichiometry N,[2],1
influenza A nucleoprotein NLS2 213-216 (from UniProt Q289M3),Kd,[3],70000 nM
